Measured values published in article PMC4474691, “Leukemia-Associated Mutations in Nucleophosmin Alter Recognition by CRM1: Molecular Basis of Aberrant Transport” (PLoS ONE, 2015).
Substitutions are numbered along the chain they refer to. One block for each molecule: values may come before it.

Target: T1, CRM1^HA (Mus musculus, UniProt Q6P5F9, L431A/V430A/V432A)
T1 construct: His-ZZ (cleaved yes); made in house; host or cells: Escherichia coli BL21-CodonPlus (DE3)
Assay: Isothermal titration calorimetry, CRM1^HA / NES
Type: binding
Conditions: ITC, TFP-NES titrated onto CRM1^HA, 20°C, 20 mM HEPES pH 7.4; rounded; read-out: KD
Procedure: Isothermal titration calorimetry (ITC)
ITC measurements were carried out using a VIP-ITC MicroCalorimeter (MicroCal, Inc., Northampton, MA). TFP and YFP constructs, as well as CRM1^HA, were dialyzed in a buffer containing 20 mM HEPES, pH 7.4, 50 mM NaCl, 1 mM TCEP, 1 mM MgCl2, and degassed prior to the experiment. Untagged peptides (AS: QDLCLAVEEVSLRK, AL: EAIQDLCLAVEEVSLRK, ES: QDLWQSLAQVSLRK and EL: EAIQDLWQSLAQVSLRK), N-acetylated and 95% pure, were purchased from Proteogenix (Schiltigheim, France) and resuspended in the ITC buffer. Measurements were performed at 20°C. TFP-NES, YFP-NES or NES peptides at 35–180 μM were titrated onto CRM1^HA at 2–14 μM. Injections of 6 μL were performed at 320 seconds interval (the first injection always was of 1 μL and is not considered in data analysis). […]
The reaction heat of each injection is related to the calorimetric enthalpy of binding, ΔH^0. The binding isotherms, ΔH^0 vs. molar ratio, were analyzed with an independent binding sites model using MicroCal Origin software. […] The Gibbs free energy of binding ΔG^0 and the entropy ΔS^0 are determined from the basic thermodynamic expressions: ΔG^0 = -RTlnKA = ΔH^0−TΔS^0, where R and T are the gas constant and the absolute temperature, respectively. […]

T1 sequence (Q6P5F9 1-1062 V430A/L431A/V432A limits assumed): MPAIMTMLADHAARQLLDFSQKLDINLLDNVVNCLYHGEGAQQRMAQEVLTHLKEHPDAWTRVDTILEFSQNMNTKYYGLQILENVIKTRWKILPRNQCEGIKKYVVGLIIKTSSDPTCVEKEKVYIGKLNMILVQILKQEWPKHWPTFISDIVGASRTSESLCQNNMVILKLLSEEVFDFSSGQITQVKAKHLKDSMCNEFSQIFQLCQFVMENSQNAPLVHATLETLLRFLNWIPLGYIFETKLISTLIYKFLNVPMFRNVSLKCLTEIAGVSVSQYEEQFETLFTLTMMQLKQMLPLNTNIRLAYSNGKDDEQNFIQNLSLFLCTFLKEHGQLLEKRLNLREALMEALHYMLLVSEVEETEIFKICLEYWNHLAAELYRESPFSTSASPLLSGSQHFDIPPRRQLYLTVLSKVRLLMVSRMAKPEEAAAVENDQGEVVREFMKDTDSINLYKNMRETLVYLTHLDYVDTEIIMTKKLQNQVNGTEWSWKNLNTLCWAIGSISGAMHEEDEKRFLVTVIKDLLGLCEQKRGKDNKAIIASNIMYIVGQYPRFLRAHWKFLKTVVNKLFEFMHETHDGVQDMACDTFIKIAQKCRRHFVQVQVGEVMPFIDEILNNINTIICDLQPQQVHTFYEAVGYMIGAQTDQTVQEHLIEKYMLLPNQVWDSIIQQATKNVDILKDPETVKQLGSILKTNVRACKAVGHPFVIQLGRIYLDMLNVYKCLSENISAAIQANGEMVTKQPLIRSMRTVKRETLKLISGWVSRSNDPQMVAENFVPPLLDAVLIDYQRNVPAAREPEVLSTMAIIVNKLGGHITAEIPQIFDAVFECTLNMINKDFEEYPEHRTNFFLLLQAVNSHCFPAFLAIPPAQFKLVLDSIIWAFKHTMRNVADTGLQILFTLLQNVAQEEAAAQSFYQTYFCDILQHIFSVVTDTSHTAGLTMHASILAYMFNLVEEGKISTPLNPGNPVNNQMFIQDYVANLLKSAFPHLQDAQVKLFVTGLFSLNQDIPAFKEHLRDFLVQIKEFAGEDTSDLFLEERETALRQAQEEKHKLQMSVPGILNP

Kd: 1000 nM
B1: NPMmutE: AML-associated NPM mutant E; in b62 the value is for its NES as TFP construct (protein)
chain: MEDSMDMDMSPLRPQNYLFGCELKADKDYHFKVDNDENEHQLSLRTVSLGAGAKDELHIVEAEAMNYEGSPIKVTLATLKMSVQPTVSLGGFEITPPVVLRLKCGSGPVHISGQHLVAVEEDAESEDEEEEDVKLLSISGKRSAPGGGSKVPQKKVKLAADEDDDDDDEEDDDEDDDDDDFDDEEAEEKAPVKKSIRDTPAKNAQKSNQNGKDSKPSSTPRSKGQESFKKQEKTPKTPKGPSSVEDIKAKMQASIEKGGSLPKVEAKFINYVKNCFRMTDQEAIQDLWQSLAQVSLRK
modifications: full-length mutant E, pentamer (SEC); for the b62 value only the NES DLWQSLAQVSLRK as TFP fusion was assayed

Kd: 2400 nM
B2: NPMmutA: AML-associated NPM mutant A; in b62 the value is for its NES as TFP construct (protein)
chain: B1 chain with W288C, Q289L, S290A, L291V, A292E, Q293E
modifications: full-length mutant A, pentamer (SEC); for the b62 value only the NES DLCLAVEEVSLRK as TFP fusion was assayed
